Results published in the DeepSol protein solubility set.

Assay: soluble on expression in E. coli; label from the status in PepcDB or PDB records

| Sequence | soluble on expression in E. coli |
| --- | --- |
| MSLVERARLAEGGGWDCHFHVFDASRYTLAAGSAYQPEDASLAAFRGVCRARGIGRAVLVHPSVYGADHSSYEDALAANGDWLRGVAVVYPDEATTPDARIEHWDLLGTAGTRINRLFPGAPQHPERIVERVKPFGWHVQVLTDIVEDIGLVRRIAARDVPVVVDHFGHHPHAQLLRSAGWQDLIALVREGAAWVKLSAPYRVGAQGPAWPGAQALVDQLVQANPRQLVWGSDWPHPPDHRHPFPAPDQAAIGATIAQWLPDAQLRRQVMELNPLRLYGGTRAAGREGHHHHHH | soluble |
| SAESSKLSATTVEAAPAMIKAKDVISPSEKEESDQTEITKVSVLKNLDEKEMIKEFADRLQRLEAKVDLLVTKADLLAIKADIQELLISAKGEKVPAMKTSAKASSESDDSYMDTSSEDESSSAEEPVNKPAASAAKPATKDSLFSAGFKPAAKDSLFSAGFKPDSLFSAGFEPAAKDSLFSAGFKPGSLFSAGFEPAAKDSLFSAGFKPDSLFSVGVKPAAKDSLFSVGVNGRSFSVTGFDASLPVDDIKSALSKYFSSFGEITRVFVPPSHGTGGSLGYAYIDLKEGAEKALELGRHDVGGWDLVVGKAEPIRSGSTWPFPGRCGNQGRCTFC | soluble |
| MKKLMITQEAGVATVLIKNPPVNILTIDLINELNAFILSLKDDRETKVVVFKSFHEAFFIAHLDLNVINGTSGGQAASIEFNHMIANIKAMKQLSIAVVDGVARGGGNEFVMACDLAYGTENSAFAQPELYINIPTGGQGAVQFARRLGKGKALQALLTGADFTAQQAETLNIITQFVLKAELDVFLAQLLSVIVGWEIRDIVMYKEIIAASIKDEAVGTELELRYFLERAREEKTQTIIAAFLKH | soluble |
| GSMPAIMTMLADHAARQLLDFSQKLDINLLDNVVNCLYHGEGAQQRMAQEVLTHLKEHPDAWTRVDTILEFSQNMNTKYYGLQILENVIKTRWKILPRNQCEGIKKYVVGLIIKTSSDPTCVEKEKVYIGKLNMILVQILKQEWPKHWPTFISDIVGASRTSESLCQNNMVILKLLSEEVFDFSSGQITQVKAKHLKDSMCNEFSQIFQLCQFVMENSQNAPLVHATLETLLRFLNWIPLGYIFETKLISTLIYKFLNVPMFRNVSLKCLTEIAGVSVSQYEEQFETLFTLTMMQLKQMLPLNTNIRLAYSNGKDDEQNFIQNLSLFLCTFLKEHGQLLEKRLNLREALMEALHYMLLVSEVEETEIFKICLEYWNHLAAELYRESPFSTSASPLLSGSQHFDIPPRRQLYLTVLSKVRLLMVSRMAKPEEVLVVENDQGEVVREFMKDTDSINLYKNMRETLVYLTHLDYVDTEIIMTKKLQNQVNGTEWSWKNLNTLCWAIGSISGAMHEEDEKRFLVTVIKDLLGLCEQKRGKDNKAIIASNIMYIVGQYPRFLRAHWKFLKTVVNKLFEFMHETHDGVQDMACDTFIKIAQKCRRHFVQVQVGEVMPFIDEILNNINTIICDLQPQQVHTFYEAVGYMIGAQTDQTVQEHLIEKYMLLPNQVWDSIIQQATKNVDILKDPETVKQLGSILKTNVRACKAVGHPFVIQLGRIYLDMLNVYKCLSENISAAIQANGEMVTKQPLIRSMRTVKRETLKLISGWVSRSNDPQMVAENFVPPLLDAVLIDYQRNVPAAREPEVLSTMAIIVNKLGGHITAEIPQIFDAVFECTLNMINKDFEEYPEHRTNFFLLLQAVNSHCFPAFLAIPPAQFKLVLDSIIWAFKHTMRNVADTGLQILFTLLQNVAQEEAAAQSFYQTYFCDILQHIFSVVTDTSHTAGLTMHASILAYMFNLVEEGKISTPLNPGNPVNNQMFIQDYVANLLKSAFPHLQDAQVKLFVTGLFSLNQDIPAFKEHLRDFLVQIKEFAGEDTSDLFLEERETALRQAQEEKHKLQMSVPGILNPHEIPEEMCD | soluble |
| MLKPETIHISGPAGILETIHIPSEQVPARGVAVINHPNPLQGGTNTNKVIQTAAKALSKLGFHCYLPNLRGVGGSGGTHDYGRGETQDCLAVIDYARAQHPEAPEFALSGFSFGGYVATFAAQARTPDLLLLIGAAVCHYTDRPEPSAVPNVAKTLMIHGAEDEVVEIGKALKWAEPQDLPVITIAGSTHFFHGKLIVLRDTILRFAPVCLNG | not soluble |
| MAHHHHHHMEQRELEKLFAPYGQILSAAVMRNIHTGNSLGTAFVRYASTEEAMSAIKGMSGKRIGGRAIAVQWAKKQHDYAPVGEARKKISKLFVRNIPLDINTVVLEDMFSMYGPVKSVSIHKDTAPDCDKNFERHIAFITFLADGAAERAAEAVHNTRPFPSCGKVPLMVKLAEDAPQRIHHGTGSKNSANALRTKQQLQGDMSAMSSGQEQFFDAPAVQQCFPTGTGTGAMVVAPTSYFSLLASGGLILPGSLPGAVMGSEAPYPWRTRVTWPQGTGVPFPFYNGGAAATAANPLAPSNACATPPSGSPVSCMNNGGFTSFPMYTTPFCPSTSPGLSGTQADSVAGSPLILPSSLHQ | not soluble |
| MPLPDFHVSEPFTLGIELEMQVVNPPGYDLSQDSSMLIDAVKNKITAGEVKHDITESMLELATDVCRDINQAAGQFSAMQKVVLQAATDHHLEICGGGTHPFQKWQRQEVCDNERYQRTLENFGYLIQQATVFGQHVHVGCASGDDAIYLLHGLSRFVPHFIALSAASPYMQGTDTRFASSRPNIFSAFPDNGPMPWVSNWQQFEALFRCLSYTTMIDSIKDLHWDIRPSPHFGTVEVRVMDTPLTLSHAVNMAGLIQATAHWLLTERPFKHQEKDYLLYKFNRFQACRYGLEGVITDPHTGDRRPLTEDTLRLLEKIAPSAHKIGASSAIEALHRQVVSGLNEAQLMRDFVADGGSLIGLVKKHCEIWAGD | soluble |
| MPPLPEKVQSHRATPIQSSGVSALPLVEYHAPGSDRLAIMISGDGGWRTLDRNLSKELQRRGISVVGWNSLRYFWKLRTPEQLGDDLSRVIADYQRRWGAHQVILIGYSFGADVMPFAYAHLMPTQRNGVDFISLLALGRKADFKARIFGWLGWGEHGTRDVLTALGALDLHRVQCIYGQNDKDAVCPELRERIFDVVMRPGGHHFDGDTVKLADAILQGWQRRIELREPRNADSPR | not soluble |
| GMNAIRYTKRECKDEKKITEFLNKARTGFLGLSTNDQPYVIPLNFVWHNHAIYFHGASEGRKIKMIEANPEVCFTICEDLGTIVSPVPAHTDTAYMSVIIFGTIEPVSAIEEGTEAMQQMLDKYVPGYYHSPLAASHVEKYRSSLGSRTAIYKISCRERTAKVNEPIESLKFYPGRNVSVDKDSR | soluble |
| MRNLIISAALVAASLFGMSAQAAEPIESGKQYVELTSAVPVAVPGKIEVIELFWYGCPHCYAFEPTINPWVEKLPSDVNFVRIPAMFGGPWDAHGQLFITLDTMGVEHKVHAAVFEAIQKGGKRLTDKNDMADFVATQGVNKDDFLKTFDSFAVKGKIAQYKELAKKYEVTGVPTMIVNGKYRFDLGSAGGPEKTLQVADQLIDKERAAAKAAK | not soluble |
| MGSDKIHHHHHHMPLLPQPAGSVTTGRYTFAAAQVHAQTLTVCIVCNNTLYPAGSAVMSRVNVSLLQSGMILSEDVTDSNGRKLLCAGDAITEKHLRILKIWGVAEVDVEGIEPADAARSALDGLDPLRVEAAAARATARFALNDLQYEPVCMLMQCSVAALAKGADPVAPLPDYSVLPAAPMPSAPPALADMLRDDTRLGSLPPVFHRLVDVVNDPRSSATDMAEVIANDTDLSARLLRLVNSTFYGLRAKVDTITRAVTIIGSNQLVSLAMGAVMTTFFKGLPNSIVDMRSFWEHSVACGVAARLLASLHRMPNTERFFVAGLLHDIGRLAVYRLLPEHSLYMLTESRRRGISMRAMEREVLGFSHDRLGGRLLKEWRCPVSLERNVALHHTPGSGHGGLESAIINVADILAHTLEFGTSGEVLVPRLEQAVWDALALPAGTLEQAAAQMDYQVHEIIRFFELDE | not soluble |
| GPGSMDVARTMRATAGGKAFAVVAAEQTAGRGTGGRTWTSPKGNLYMTVGVPQLGQPPCLKEELVPVLPLICGLACRRAVLEVLHLDGALAKASVAADAAKAVATKWPNDIIYNHKKIGGTLIESDGDYLIIGIGMNIAVAPQMTDAGREATMINTIAEDFGVKSCPPRDLANAIWCHLFDICSSPEWTRELVIESFDKVMDKSLKLHKRLPGGRDPEELTAVSLNSWGHLKVRHADGTVEDLSAEYLF | not soluble |
| MSYEMNSLFSSNQQPLGGGPPPQQQSQQQQQPPQSLWSLQQFSQMGAPDNFGNHAVPFMPTLGMLNQYQNPHPLQMVPPQPLVTPSQVLPPSMAEQQRADTIHGFGVLTWLSAKAGLITCKDKMIISFQLKDFCDQMLNDLTSVLRVGFTLSFHAALNETSEYTATIVSPIYGPDADVLFANSQEVDLEAANPTPPNSKDAYSPALEQKAIPALLAIFQRHGLQQIQLSRSFSLHSQMSNCGDDELFRYVGTSSLKRRQFVERRTHLFRLQNDDSIILQYPAVYQAVYQLASYLLRRGGATSIQSLFDYYGSPDIMPEVRSHTGEGRQDFLNLLTAHNWVFALFPNRTYVSVRRNLPNYDYVGFIKQHFQEMDITRSQQMAYGQPPRGIQRTMSAQMGSSFATGRPQNLLMQHQHAMTPAATRSGSLWDSQSSLSQSGNSGDQWSPLFSPSTWSNNTNANPRLTSLTPLSSMNETLLSGVNYNSLLAMPPSAKNERSIGVQADDFLDRMSYNPIGRTGCTCQCQCGRGGAAIIGNTRGSSSRASGGSASPPSADGASQIDRFSPSNHAGSIGDRTLTAAALGVGLVDQQPAAPNHDGSANQPQRYYDPFGTADLLNGTRLNSLRIGN | not soluble |
| GRDGNNLNNPVLLLDTFDFGPREDNWFFYPGGNIGLYCPYSSKGAPEEDSAMVFVSNEVGEHSITTRDLSVNENTIIQFEINVGCSTDSSSADPVRLEFSRDFGATWHLLLPLCYHSSSLVSSLCSTEHHPSSTYYAGTTQGWRREVVHFGKLHLAGSVRFRWYQGFYPAGSQPVTWAIDNVYIGPQCEEMCYGHGSCINGTKCICDPGYSGPTCKISTKNPDFLKDDFEGQLESDRFLLMSGGKPSRKCGILSSGNNLFFNEDGLRMLVTRDLDLSHARFVQFFMRLGCGKGVPDPRSQPVLLQYSLNGGLSWSLLQEFLFSNSSNVGRYIALEMPLKARSGSTRLRWWQPSENGHFYSPWVIDQILIGGNISGNTVLEDDFSTLDSRKWLLHPGGTKMPVCGSTGDALVFIEKASTRYVVTTDIAVNEDSFLQIDFAASCSVTDSCYAIELEYSVDLGLSWHPLVRDCLPTNVECSRYHLQRILVSDTFNKWTRITLPLPSYTRSQATRFRWHQPAPFDKQQTWAIDNVYIGDGCLDMCSGHGRCVQGSCVCDEQWGGLYCDEPETSLPTQLKDNFNRAPSNQNWLTVSGGKLSTVCGAVASGLALHFSGGCSRLLVTVDLNLTNAEFIQFYFMYGCLITPSNRNQGVLLEYSVNGGITWNLLMEIFYDQYSKPGFVNILLPPDAKEIATRFRWWQPRHDGLDQNDWAIDNVLISRLENLYFQ | soluble |
| MQSFADAKEFFQYSAGQWQSRRVTHHLPFRRAESGGSNIQVETLEKDDPRIIEICQMHDMDASLSVGGSYVTWAGTMQWDKDDENHEGSTVFALIPDADNPRQGKLLRERGYAEIVPVAGEYHLDHEDGLVLTTEYETMTIYERFWFANPDLRLRTSTVKRFGGFNTTTFCMEERIQTSPVTATAAAETNPLYAISGW | not soluble |
